Target: T1, GST-E1 (HPV 11 E1 fused to GST) (human papillomavirus type 11, UniProt P04014 1-649)
T1 sequence: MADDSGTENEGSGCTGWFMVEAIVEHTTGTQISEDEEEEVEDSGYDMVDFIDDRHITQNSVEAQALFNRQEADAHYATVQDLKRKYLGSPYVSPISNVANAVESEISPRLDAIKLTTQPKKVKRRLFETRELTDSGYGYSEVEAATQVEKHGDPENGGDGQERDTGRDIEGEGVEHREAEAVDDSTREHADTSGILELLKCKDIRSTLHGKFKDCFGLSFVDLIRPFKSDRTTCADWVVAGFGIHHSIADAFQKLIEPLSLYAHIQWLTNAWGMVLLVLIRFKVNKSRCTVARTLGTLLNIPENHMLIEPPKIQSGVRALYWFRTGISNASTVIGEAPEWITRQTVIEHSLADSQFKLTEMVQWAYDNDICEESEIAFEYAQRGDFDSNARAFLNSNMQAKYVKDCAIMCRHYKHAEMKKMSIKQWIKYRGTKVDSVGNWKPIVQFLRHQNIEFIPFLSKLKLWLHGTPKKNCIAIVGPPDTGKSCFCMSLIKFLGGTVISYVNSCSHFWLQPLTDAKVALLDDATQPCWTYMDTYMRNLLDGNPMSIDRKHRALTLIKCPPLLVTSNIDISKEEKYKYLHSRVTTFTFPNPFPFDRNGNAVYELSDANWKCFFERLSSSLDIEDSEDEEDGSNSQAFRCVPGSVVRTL
Assay: far-Western, overlay or dot blot

B1: p50 subunit of pol δ (natural protein)
chain: not shown
B1: binds.

— paper PMC5758917 (Nucleic Acids Research, 2017)
